These results are taken from publication PMC10629583 (2023).

Where no end group is shown, it is not given here. [ ]: non-standard residue; d: D form. The star is where a group is joined. FITC = O=C1OC2(c3ccc(O)cc3Oc3cc(O)ccc32)c2ccc(NC(=S)*)cc21; pT = C[C@@H](OP(=O)(O)O)[C@H](N)C(=O)O; Ahx = NCCCCCC(=O)O

What all share (test): FP
Test [1] has as its target PBD1 (residues 345–603) F559D (human, UniProt P53350 345-603, F559D).
Test [2] addresses PBD1 (residues 345–603) F559E (human, UniProt P53350 345-603, F559E).
The target of test [3] is PBD1 (residues 345–603) F559K (human, UniProt P53350 345-603, F559K).
The target in test [4] is Plk1 polo-box domain, PBD1 (residues 345–603) WT (human, UniProt P53350 345-603).
The target in test [5] is PBD1 (residues 345–603) F559R (human, UniProt P53350 345-603, F559R).
For another test, the target named is T1, FITC-GPLATSpTPKNG (synthetic construct).
T1 chain: {FITC}-GPLATS[pT]PKNG

The next test concerns the target T2, FITC-GPMQTSpTPKNG (synthetic construct).
T2 chain: {FITC}-GPMQTS[pT]PKNG

Sequence of PBD1 (residues 345–603) F559K (P53350 345-603 F559K): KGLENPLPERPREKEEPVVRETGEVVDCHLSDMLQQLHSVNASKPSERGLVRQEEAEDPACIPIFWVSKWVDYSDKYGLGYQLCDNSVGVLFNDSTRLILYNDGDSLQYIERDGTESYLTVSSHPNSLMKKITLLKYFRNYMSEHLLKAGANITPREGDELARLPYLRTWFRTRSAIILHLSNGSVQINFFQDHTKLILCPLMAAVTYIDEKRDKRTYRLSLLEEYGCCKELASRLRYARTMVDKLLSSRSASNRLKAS
Sequence of PBD1 (residues 345–603) F559E (P53350 345-603 F559E): as the sequence (P53350 345-603 F559K) above, with K215E counted along it
Sequence of PBD1 (residues 345–603) F559R (P53350 345-603 F559R): as the sequence (P53350 345-603 F559K) above, with K215R counted along it
Sequence of Plk1 polo-box domain, PBD1 (residues 345–603) WT (P53350 345-603): as the sequence (P53350 345-603 F559K) above, with K215F counted along it
Sequence of PBD1 (residues 345–603) F559D (P53350 345-603 F559D): as the sequence (P53350 345-603 F559K) above, with K215D counted along it

B1: FITC-Ahx-DPPLHSpTAI-NH2 (peptide)
peptide: {FITC-Ahx}-DPPLHS[pT]AI-NH2
SMILES: CC[C@H](C)[C@H](NC(=O)[C@H](C)NC(=O)[C@@H](NC(=O)[C@H](CO)NC(=O)[C@H](Cc1c[nH]cn1)NC(=O)[C@H](CC(C)C)NC(=O)[C@@H]1CCCN1C(=O)[C@@H]1CCCN1C(=O)[C@H](CC(=O)O)NC(=O)CCCCCNC(=S)Nc1ccc2c(c1)C(=O)OC21c2ccc(O)cc2Oc2cc(O)ccc21)[C@@H](C)OP(=O)(O)O)C(N)=O
Regarding B1, the Kd in test [1] came to 28.1 nM; in test [2], 124 nM; in test [3], 704 nM; in test [4] it was 16.8 nM; in test [5], 460 nM.

B2: MBP-PBD3 A612F (protein)
chain: TPPNPARSLFAKVTKSLFGRKKKSKNHAQERDEVSGLVSGLMRTSVGHQDARPEAPAASGPAPVSLVETAPEDSSPRGTLASSGDGFEEGLTVATVVESALCALRNCIAFMPPAEQNPAPLAQPEPLVWVSKWVDYSNKFGFGYQLSSRRVAVLFNDGTHMALSANRKTVHYNPTSTKHFSFSVGAVPRALQPQLGILRYFASYMEQHLMKGGDLPSVEEVEVPAPPLLLQWVKTDQALLMLFSDGTVQVNFYGDHTKLILSGWEPLLVTFVARNRSFCTYLASHLRQLGCSPDLRQRLRYALRLLRDRSPA
B2: the Kd in the test with FITC-GPLATSpTPKNG came to 85.4 nM.

B3: MBP-PBD3 (protein)
chain: TPPNPARSLFAKVTKSLFGRKKKSKNHAQERDEVSGLVSGLMRTSVGHQDARPEAPAASGPAPVSLVETAPEDSSPRGTLASSGDGFEEGLTVATVVESALCALRNCIAFMPPAEQNPAPLAQPEPLVWVSKWVDYSNKFGFGYQLSSRRVAVLFNDGTHMALSANRKTVHYNPTSTKHFSFSVGAVPRALQPQLGILRYFASYMEQHLMKGGDLPSVEEVEVPAPPLLLQWVKTDQALLMLFSDGTVQVNFYGDHTKLILSGWEPLLVTFVARNRSACTYLASHLRQLGCSPDLRQRLRYALRLLRDRSPA
For B3, the affinity with FITC-GPLATSpTPKNG, expressed as Kd, was 62.4 nM.

B4: PBD2 S652F (protein)
chain: HLSSPAKNFFKKAAAALFGGKKDKARYIDTHNRVSKEDEDIYKLRHDLKKTSITQQPSKHRTDEELQPPTTTVARSGTPAVENKQQIGDAIRMIVRGTLGSCSSSSECLEDSTMGSVADTVARVLRGCLENMPEADCIPKEQLSTSFQWVTKWVDYSNKYGFGYQLSDHTVGVLFNNGAHMSLLPDKKTVHYYAELGQCSVFPATDAPEQFISQVTVLKYFSHYMEENLMDGGDLPSVTDIRRPRLYLLQWLKSDKALMMLFNDGTFQVNFYHDHTKIIICSQNEEYLLTYINEDRIFTTFRLTTLLMSGCSSELKNRMEYALNMLLQRCN
On to B4, for which the Kd with FITC-GPMQTSpTPKNG turned out to be 62.7 nM.

B5: PBD2 (protein)
chain: HLSSPAKNFFKKAAAALFGGKKDKARYIDTHNRVSKEDEDIYKLRHDLKKTSITQQPSKHRTDEELQPPTTTVARSGTPAVENKQQIGDAIRMIVRGTLGSCSSSSECLEDSTMGSVADTVARVLRGCLENMPEADCIPKEQLSTSFQWVTKWVDYSNKYGFGYQLSDHTVGVLFNNGAHMSLLPDKKTVHYYAELGQCSVFPATDAPEQFISQVTVLKYFSHYMEENLMDGGDLPSVTDIRRPRLYLLQWLKSDKALMMLFNDGTFQVNFYHDHTKIIICSQNEEYLLTYINEDRISTTFRLTTLLMSGCSSELKNRMEYALNMLLQRCN
The molecule B5 came in with a Kd with FITC-GPMQTSpTPKNG of 80.2 nM.

The term Kd denotes the equilibrium constant for the complex coming apart.
